In publication PMC12062237, “Phosphate-binding pocket on cyclin B governs CDK substrate phosphorylation and mitotic timing” (Nature Communications, 2025):

T1: Clb2-pp mutant (R366A, R379A, K383A), aa 187-491 (S. cerevisiae, UniProt P24869 187-491, R366A | R379A | K383A)
T1 construct: also called PP mutant Clb2; source: E. coli BL21(DE3) Star, pET28, purified (Ni-NTA, S200 gel filtration)
T1 sequence (looked up): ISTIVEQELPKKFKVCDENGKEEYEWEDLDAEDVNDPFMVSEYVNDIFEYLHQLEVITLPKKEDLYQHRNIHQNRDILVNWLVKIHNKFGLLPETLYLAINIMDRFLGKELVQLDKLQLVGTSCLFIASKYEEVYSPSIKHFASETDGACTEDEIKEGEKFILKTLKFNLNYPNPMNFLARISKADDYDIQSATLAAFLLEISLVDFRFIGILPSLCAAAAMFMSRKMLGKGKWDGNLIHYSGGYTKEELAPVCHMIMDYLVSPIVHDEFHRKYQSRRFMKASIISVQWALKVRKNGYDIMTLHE

T2: Clb2 (aa 187-491), wild-type (S. cerevisiae, UniProt P24869 187-491)
T2 construct: Clb2, major mitotic B-type cyclin of S. cerevisiae, aa 187-491; also called wild-type Clb2; source: E. coli BL21(DE3) Star, pET28, purified (Ni-NTA, S200 gel filtration)
T2 sequence (looked up): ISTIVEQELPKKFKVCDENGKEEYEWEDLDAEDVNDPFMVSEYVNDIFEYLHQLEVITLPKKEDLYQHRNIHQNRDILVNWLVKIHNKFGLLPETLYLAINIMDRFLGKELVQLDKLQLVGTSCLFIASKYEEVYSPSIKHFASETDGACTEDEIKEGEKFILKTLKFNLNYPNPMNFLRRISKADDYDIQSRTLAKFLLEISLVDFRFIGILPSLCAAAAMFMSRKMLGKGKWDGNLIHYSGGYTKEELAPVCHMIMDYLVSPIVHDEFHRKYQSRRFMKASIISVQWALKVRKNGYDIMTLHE


Legend:
Conditions in all cases: both partners purified
[1] = biological target: T3, Clb2-Cdk1 complex, Clb2-pp mutant (S. cerevisiae, UniProt P24869 187-491; P00546 1-298, R366A | R379A | K383A, phosphothreonine at 169 (by Cak1)); test: reconstitution of an active kinase complex by mixing; Clb2-Cdk1 combined with equimolar Cks1; no separate test of association
T3 construct: Clb2 of S. cerevisiae, aa 187-491, phosphate-pocket mutant; Cdk1 (Cdc28) of S. cerevisiae, made as a GST-TEV-Cdk1 fusion; formed before Cks1 was added; also called clb2-pp Clb2-Cdk1; PP mutant Clb2-Cdk1; source: assembled from purified Clb2-pp (E. coli) and purified Cak1-phosphorylated Cdk1 (Sf9), desalted
T3 sequence (P00546 whole entry, stated change not applied, the tested form may be a part, one chain of several): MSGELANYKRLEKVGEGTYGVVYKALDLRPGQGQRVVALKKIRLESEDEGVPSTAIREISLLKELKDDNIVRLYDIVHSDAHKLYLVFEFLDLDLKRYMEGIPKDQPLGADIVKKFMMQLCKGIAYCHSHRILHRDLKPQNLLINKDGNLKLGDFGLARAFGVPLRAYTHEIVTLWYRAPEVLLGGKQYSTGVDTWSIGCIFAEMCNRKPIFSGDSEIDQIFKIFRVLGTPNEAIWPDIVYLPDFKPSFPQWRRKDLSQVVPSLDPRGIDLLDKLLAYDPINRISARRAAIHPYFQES

[2] = biological target: T4, Clb2-Cdk1 complex, wild-type Clb2 (S. cerevisiae, UniProt P24869 187-491; P00546 1-298, phosphothreonine at 169 (by Cak1)); test: as above
T4 construct: Clb2 of S. cerevisiae, aa 187-491; Cdk1 (Cdc28) of S. cerevisiae, made as a GST-TEV-Cdk1 fusion; formed before Cks1 was added; also called wild-type Clb2-Cdk1; active Clb2-Cdk1; source: assembled from purified Clb2 (E. coli) and purified Cak1-phosphorylated Cdk1 (Sf9), desalted
T4 sequence (P00546 whole entry, the tested form may be a part, one chain of several): as the sequence (P00546 whole entry, stated change not applied, the tested form may be a part, one chain of several) above

[3] = biological target: T1, Clb2-pp mutant (R366A, R379A, K383A), …; test: reconstitution of an active kinase complex by mixing; 10.5 uM Cak1-phosphorylated Cdk1 and 10.5 uM Clb2, on ice 60 min, then desalted; the complex is known by its kinase activity only
[4] = biological target: T2, Clb2 (aa 187-491), wild-type; test: as above

| Binder | binding result [1] | binding result [2] | binding result [3] | binding result [4] |
| --- | --- | --- | --- | --- |
| Cks1, wild-type (natural protein, S. cerevisiae, UniProt P20486 1-150, looked up, Cks1 of S. cerevisiae; also called wild-type Cks1; source: E. coli BL21(DE3) Star, purified (boiling, ammonium sulfate, S200 gel filtration)) MYHHYHAFQGRKLTDQERARVLEFQDSIHYSPRYSDDNYEYRHVMLPKAMLKVIPSDYFNSEVGTLRILTEDEWRGLGITQSLGWEHYECHAPEPHILLFKRPLNYEAELRAATAAAQQQQQQQQQQQQQQQQHQTQSISNDMQVPPQIS | binds | binds |  |  |
| Cks1 mutant (R33E, S82E, R102A) (natural protein, S. cerevisiae, UniProt P20486 1-150, looked up, also called mutant Cks1; source: E. coli BL21(DE3) Star, purified (boiling, ammonium sulfate, S200 gel filtration)) MYHHYHAFQGRKLTDQERARVLEFQDSIHYSPEYSDDNYEYRHVMLPKAMLKVIPSDYFNSEVGTLRILTEDEWRGLGITQELGWEHYECHAPEPHILLFKAPLNYEAELRAATAAAQQQQQQQQQQQQQQQQHQTQSISNDMQVPPQIS | binds | binds |  |  |
| Cdk1 (Cdc28), T169-phosphorylated (enzyme, phosphothreonine at 169 (by Cak1), Cdk1 (Cdc28) of S. cerevisiae, made as a GST-TEV-Cdk1 fusion; no TEV cleavage is described; the pooled fractions are called GST-Cdk1; also called GST-Cdk1; phosphorylated Cdk1; source: Sf9, baculovirus, purified (Glutathione Sepharose, S200 gel filtration); phosphorylated with purified Cak1) not shown |  |  | binds | binds |
